Experimental data as given in the Immune Epitope Database (IEDB).
One block for each sequence: values may come before it.

Columns and labels:
HLA-A*01:01 = assay: IEDB peptide-MHC binding, purified MHC/direct/fluorescence; filed as Kd, often an IC50 or EC50 that approximates it; ≥ and ≤ were set here for values at or beyond the usual limits of such assays
HLA-A*02:01 [1] = assay: as above
HLA-A*03:01 [2] = assay: as above
HLA-A*11:01 = assay: as above
HLA-A*24:03 [3] = assay: as above
HLA-A*26:01 [4] = assay: as above
HLA-A*30:01 = assay: as above
HLA-A*69:01 [5] = assay: as above
HLA-B*07:02 = assay: as above
HLA-B*08:01 = assay: as above
HLA-B*15:01 = assay: as above
HLA-B*27:05 = assay: as above
HLA-B*40:01 = assay: as above
HLA-B*58:01 [6] = assay: as above
HLA-A*31:01 = assay: as above
HLA-B*15:17 [7] = assay: as above; details: source organism: Cryptosporidium parvum
HLA-B*35:01 = assay: as above
HLA-B*44:02 = assay: as above
HLA-B*57:01 [8] = assay: as above; details: source organism: Cryptosporidium parvum
HLA-C*15:02 = assay: as above; details: source organism: Cryptosporidium parvum
HLA-A*02:01 [9] = assay: IEDB peptide-MHC binding, purified MHC/competitive/fluorescence; filed as Kd, often an IC50 or EC50 that approximates it; ≥ and ≤ were set here for values at or beyond the usual limits of such assays; details: source organism: Streptococcus pneumoniae TIGR4
HLA-A*03:01 [10] = assay: as above; details: source organism: Streptococcus pneumoniae TIGR4
HLA-A*23:01 = assay: as above
HLA-A*24:03 [11] = assay: as above; details: source organism: Streptococcus pneumoniae TIGR4
HLA-A*26:01 [12] = assay: as above; details: source organism: Streptococcus pneumoniae TIGR4
HLA-A*29:02 = assay: as above; details: source organism: Streptococcus pneumoniae TIGR4
HLA-A*68:02 = assay: as above; details: source organism: Streptococcus pneumoniae TIGR4
HLA-A*69:01 [13] = assay: as above; details: source organism: Streptococcus pneumoniae TIGR4
HLA-B*15:17 [14] = assay: as above; details: source organism: Streptococcus pneumoniae TIGR4
HLA-B*18:01 = assay: as above; details: source organism: Streptococcus pneumoniae TIGR4
HLA-B*27:03 = assay: as above; details: source organism: Streptococcus pneumoniae TIGR4
HLA-B*46:01 = assay: as above; details: source organism: Streptococcus pneumoniae TIGR4
HLA-B*51:01 = assay: as above; details: source organism: Streptococcus pneumoniae TIGR4
HLA-B*57:01 [15] = assay: as above; details: source organism: Streptococcus pneumoniae TIGR4
HLA-B*58:01 [16] = assay: as above; details: source organism: Mycobacterium tuberculosis C
[17] = source organism: Collimonas fungivorans
[18] = source organism: Cryptosporidium parvum
[19] = source organism: Vibrio vulnificus
[20] = source organism: Vibrio cholerae
[21] = source organism: Giardia lamblia ATCC 50803

- Kd (HLA-A*01:01; [17]): ≥ 20 µM
- Kd (HLA-A*02:01 [1]; [17]): ≥ 20 µM
- Kd (HLA-A*03:01 [2]; [17]): 2.28 µM
- Kd (HLA-A*11:01; [17]): 0.168 µM
- Kd (HLA-A*24:03 [3]; [17]): 2400 nM
- Kd (HLA-A*26:01 [4]; [17]): ≥ 20 µM
- Kd (HLA-A*30:01; [17]): 0.00979 µM
- Kd (HLA-A*69:01 [5]; [17]): ≥ 20 µM
- Kd (HLA-B*07:02; [17]): ≥ 20 µM
- Kd (HLA-B*08:01; [17]): ≥ 20 µM
- Kd (HLA-B*15:01; [17]): ≥ 20 µM
- Kd (HLA-B*27:05; [17]): ≥ 20 µM
- Kd (HLA-B*40:01; [17]): ≥ 20 µM
- Kd (HLA-B*58:01 [6]; [17]): ≥ 20 µM
Sequence: AYSPFAFKK

Sequence: ISCQIYNAL
- Kd (HLA-A*01:01; [18]): ≥ 20 µM
- Kd (HLA-A*02:01 [1]; [18]): ≥ 20 µM
- Kd (HLA-A*03:01 [2]; [18]): ≥ 20 µM
- Kd (HLA-A*11:01; [18]): ≥ 20 µM
- Kd (HLA-A*26:01 [4]; [18]): ≥ 20 µM
- Kd (HLA-A*31:01; [18]): ≥ 20 µM
- Kd (HLA-A*69:01 [5]; [18]): ≥ 20 µM
- Kd (HLA-B*07:02; [18]): ≥ 20 µM
- Kd (HLA-B*08:01; [18]): ≥ 20 µM
- Kd (HLA-B*15:01; [18]): 0.27 µM
- Kd (HLA-B*15:17 [7]): 82.6 nM
- Kd (HLA-B*27:05; [18]): ≥ 20 µM
- Kd (HLA-B*35:01; [18]): 169 nM
- Kd (HLA-B*40:01; [18]): 0.192 µM
- Kd (HLA-B*44:02; [18]): ≥ 20 µM
- Kd (HLA-B*57:01 [8]): ≥ 20 µM
- Kd (HLA-C*15:02): 385 nM

Sequence: YQVEGATRV
- Kd (HLA-A*02:01 [9]): 1.7 nM
- Kd (HLA-A*03:01 [10]): ≥ 20 µM
- Kd (HLA-A*23:01; source organism: Streptococcus pneumoniae TIGR4): ≥ 20000 nM
- Kd (HLA-A*24:03 [11]): ≥ 20 µM
- Kd (HLA-A*26:01 [12]): ≥ 20 µM
- Kd (HLA-A*29:02): ≥ 20 µM
- Kd (HLA-A*68:02): ≥ 20 µM
- Kd (HLA-A*69:01 [13]): ≥ 20 µM
- Kd (HLA-B*15:17 [14]): ≥ 20 µM
- Kd (HLA-B*18:01): ≥ 20 µM
- Kd (HLA-B*27:03): ≥ 20 µM
- Kd (HLA-B*46:01): ≥ 20 µM
- Kd (HLA-B*51:01): ≥ 20 µM
- Kd (HLA-B*57:01 [15]): ≥ 20 µM

Sequence: QKDINTPGY
- Kd (HLA-A*01:01; [19]): ≥ 20 µM
- Kd (HLA-A*02:01 [1]; [19]): 15.5 µM
- Kd (HLA-A*03:01 [2]; [19]): ≥ 20 µM
- Kd (HLA-A*11:01; [19]): ≥ 20 µM
- Kd (HLA-A*26:01 [4]; [19]): ≥ 20 µM
- Kd (HLA-A*30:01; [19]): 9.37 µM
- Kd (HLA-A*31:01; [19]): ≥ 20 µM
- Kd (HLA-A*69:01 [5]; [19]): ≥ 20 µM
- Kd (HLA-B*07:02; [19]): ≥ 20 µM
- Kd (HLA-B*08:01; [19]): ≥ 20 µM
- Kd (HLA-B*27:05; [19]): ≥ 20 µM
- Kd (HLA-B*40:01; [19]): ≥ 20 µM
- Kd (HLA-B*44:02; [19]): ≥ 20 µM
- Kd (HLA-B*58:01 [6]; [19]): ≥ 20 µM

Sequence: RSFRIHILF
- Kd (HLA-B*15:01; source organism: Mycobacterium tuberculosis): ≥ 10 µM
- Kd (HLA-B*58:01 [16]): 4.4 µM

Sequence: VPPTNSINK
- Kd (HLA-A*01:01; [18]): ≥ 20 µM
- Kd (HLA-A*02:01 [1]; [18]): ≥ 20 µM
- Kd (HLA-A*03:01 [2]; [18]): ≥ 20 µM
- Kd (HLA-A*11:01; [18]): ≥ 20 µM
- Kd (HLA-A*24:03 [3]; [18]): ≥ 20000 nM
- Kd (HLA-A*26:01 [4]; [18]): ≥ 20 µM
- Kd (HLA-A*31:01; [18]): ≥ 20 µM
- Kd (HLA-A*69:01 [5]; [18]): ≥ 20 µM
- Kd (HLA-B*08:01; [18]): ≥ 20 µM
- Kd (HLA-B*15:01; [18]): ≥ 10 µM
- Kd (HLA-B*27:05; [18]): ≥ 20 µM
- Kd (HLA-B*35:01; [18]): 15000 nM
- Kd (HLA-B*40:01; [18]): ≥ 20 µM
- Kd (HLA-B*44:02; [18]): ≥ 20 µM
- Kd (HLA-B*58:01 [6]; [18]): ≥ 20 µM

Sequence: GEHWLGRIW
- Kd (HLA-A*01:01; [20]): ≥ 20 µM
- Kd (HLA-A*02:01 [1]; [20]): ≥ 20 µM
- Kd (HLA-A*03:01 [2]; [20]): ≥ 20 µM
- Kd (HLA-A*11:01; [20]): ≥ 20 µM
- Kd (HLA-A*26:01 [4]; [20]): ≥ 20 µM
- Kd (HLA-A*30:01; [20]): ≥ 20 µM
- Kd (HLA-A*31:01; [20]): ≥ 20 µM
- Kd (HLA-A*69:01 [5]; [20]): ≥ 20 µM
- Kd (HLA-B*07:02; [20]): ≥ 20 µM
- Kd (HLA-B*08:01; [20]): ≥ 20 µM
- Kd (HLA-B*15:01; [20]): ≥ 20 µM
- Kd (HLA-B*27:05; [20]): 13.1 µM
- Kd (HLA-B*35:01; [20]): ≥ 10000 nM
- Kd (HLA-B*40:01; [20]): 0.858 µM
- Kd (HLA-B*44:02; [20]): 3.83 µM
- Kd (HLA-B*58:01 [6]; [20]): 19.4 µM

Sequence: SYPPPPASF
- Kd (HLA-A*01:01; [21]): ≥ 20 µM
- Kd (HLA-A*02:01 [1]; [21]): ≥ 20 µM
- Kd (HLA-A*03:01 [2]; [21]): ≥ 20 µM
- Kd (HLA-A*11:01; [21]): ≥ 20 µM
- Kd (HLA-A*24:03 [3]; [21]): 0.84 nM
- Kd (HLA-A*26:01 [4]; [21]): ≥ 20 µM
- Kd (HLA-A*30:01; [21]): ≥ 44.4 µM
- Kd (HLA-A*69:01 [5]; [21]): ≥ 20 µM
- Kd (HLA-B*08:01; [21]): ≥ 20 µM
- Kd (HLA-B*15:01; [21]): ≥ 10 µM
- Kd (HLA-B*27:05; [21]): ≥ 20 µM
- Kd (HLA-B*35:01; [21]): 1590 nM
- Kd (HLA-B*40:01; [21]): ≥ 20 µM
- Kd (HLA-B*44:02; [21]): ≥ 20 µM
- Kd (HLA-B*58:01 [6]; [21]): ≥ 20 µM

Sequence: IWQWIHHEK
- Kd (HLA-A*23:01; source organism: Salmonella enterica subsp. enterica serovar Typhi): 178 nM
